What was measured:
[1] = target: H-2 K^b (mouse; human), P61769
[2] = target: H-2 D^b (mouse; human), P61769

Q: RMLINRFTM (modifications not checked) [NS5237-45] was tested. Which IC50 [1] did it give?
A: Its IC50 is greater than 2000 nM.

Q: And the IC50 [2]?
A: Its IC50 is 21 nM.

Q: For FSLGVLGM (modifications not checked) [NS2A8-15], which IC50 [2] is on record?
A: Its IC50 is 1800 nM.

Q: Which IC50 [1] does the source give for YSQVNPITL (modifications not checked) [NS4B99-107] here?
A: The IC50 was 1890 nM.

Q: And the IC50 [2]?
A: Its IC50 is 1.3 nM.

Q: With RALIFILL (modifications not checked) [M60-67] as the binder, how does the IC50 [1] read?
A: The IC50 was 22 nM.

Q: What about the IC50 [2] of the same binder?
A: Its IC50 is greater than 2000 nM.

Q: How did the IC50 [1] turn out when VAFLRFLTI (modifications not checked) [C51-59] was run?
A: The IC50 was 20 nM.

Q: And the IC50 [2]?
A: Its IC50 is 1380 nM.

Q: GMLQGRGPL (modifications not checked) [C36-44] was tested. Which IC50 [1] did it give?
A: Its IC50 is 1340 nM.

Q: What about the IC50 [2] of the same binder?
A: The IC50 was 820 nM.

Q: For VSWTMKIL (modifications not checked) [E451-458], which IC50 [1] is on record?
A: The IC50 was 458 nM.

Q: How did the IC50 [1] turn out when TAIANQATV (modifications not checked) [NS4B66-74] was run?
A: The IC50 was greater than 2000 nM.

Q: And the IC50 [2]?
A: The IC50 was 1.3 nM.

Q: How did the IC50 [1] turn out when LAVTIMAIL (modifications not checked) [NS2A145-153] was run?
A: Its IC50 is greater than 2000 nM.

Q: What about the IC50 [2] of the same binder?
A: The IC50 was 644 nM.

Q: MTMRCIGI (modifications not checked) [E-2-6] was tested. Which IC50 [1] did it give?
A: Its IC50 is 1080 nM.

Q: Which results are given for VAVSFVTLI (modifications not checked) [NS2A36-44]?
A: IC50 [1]: 12 nM; IC50 [2]: 997 nM
